Ends that are not written are not given here. * marks the point of attachment. Biotin = O=C1N[C@H]2[C@H](CS[C@H]2CCCCC(=O)*)N1
Tests used:
[1] = target: T1, human HER2-ECD protein (1 to 652 amino acids of NP_004439.2, 6xHis tag at the C-terminus) (human, UniProt P04626 23-652); test: ELISA on coated HER2-ECD protein; wild-type HER2-ECD
T1 construct: Homemade, expressed in CHO cells from HER2-ECD-His-pTT5; also called HER2-ECD-His; HER2-ECD-fl(1-652)

[2] = target: T1, human HER2-ECD protein (1 to 652 amino …); test: competitive ELISA on coated human HER2-ECD; competitor: biotinylated 19H6 (10 ng/mL, mixed 1:1)
[3] = target: T1, human HER2-ECD protein (1 to 652 amino …); test: ELISA on coated human HER2-ECD
HER2-ECD-E507A = target: T2, HER2-ECD-E507A (human, UniProt P04626 23-652); test: ELISA on coated HER2-ECD-E507A; E507A mutant
T2 construct: Site-directed mutant of HER2-ECD-His-pTT5, expressed in HEK293E

[4] = target: T3, peptide 3-4, bio-RPEDECVGEGLA (499-510); test: peptide ELISA
T3 peptide: Biotin-RPEDECVGEGLA

495-510 = target: T4, 495-510; test: peptide ELISA
T4 peptide: HTANRPEDECVGEGLA

[5] = target: T5, peptide 4-1, bio-ATANRPEDECVGEGLA; test: peptide ELISA, alanine scan
T5 peptide: Biotin-ATANRPEDECVGEGLA

[6] = target: T6, peptide 4-3, bio-HTAARPEDECVGEGLA; test: peptide ELISA, alanine scan
T6 peptide: Biotin-HTAARPEDECVGEGLA

[7] = target: T7, peptide 4-4, bio-HTANAPEDECVGEGLA; test: peptide ELISA, alanine scan
T7 peptide: Biotin-HTANAPEDECVGEGLA

[8] = target: T8, peptide 4-6, bio-HTANRPADECVGEGLA; test: peptide ELISA, alanine scan
T8 peptide: Biotin-HTANRPADECVGEGLA

[9] = target: T9, peptide 4-2, bio-HAANRPEDECVGEGLA; test: peptide ELISA, alanine scan
T9 peptide: Biotin-HAANRPEDECVGEGLA

[10] = target: T10, peptide 4-8, bio-HTANRPEDACVGEGLA; test: peptide ELISA, alanine scan
T10 peptide: Biotin-HTANRPEDACVGEGLA

[11] = target: T11, peptide 4-5, bio-HTANRAEDECVGEGLA; test: peptide ELISA, alanine scan
T11 peptide: Biotin-HTANRAEDECVGEGLA

[12] = target: T12, peptide 4-9, bio-HTANRPEDEAVGEGLA; test: peptide ELISA, alanine scan
T12 peptide: Biotin-HTANRPEDEAVGEGLA

[13] = target: T13, peptide 4-11 (E507A), bio-HTANRPEDECVGAGLA; test: ELISA on alanine scan biotin peptides
T13 peptide: Biotin-HTANRPEDECVGAGLA

[14] = target: T14, peptide 4-12 (L509A), bio-HTANRPEDECVGEGAA; test: ELISA on alanine scan biotin peptides
T14 peptide: Biotin-HTANRPEDECVGEGAA

[15] = target: T15, peptide 4-7 (D502A), bio-HTANRPEAECVGEGLA; test: ELISA on alanine scan biotin peptides
T15 peptide: Biotin-HTANRPEAECVGEGLA

[16] = target: T16, peptide 4-10 (V505A), bio-HTANRPEDECAGEGLA; test: ELISA on alanine scan biotin peptides
T16 peptide: Biotin-HTANRPEDECAGEGLA

HER2-ECD-DI-III = target: T17, HER2-ECD-DI-III; test: Western blot by the method of Example 3.2 (reduced-denatured protein)
T17 construct: Truncated human HER2-ECD construct; also called HER2-ECD-DI-DIII(1-510)
T17 receptor fragment: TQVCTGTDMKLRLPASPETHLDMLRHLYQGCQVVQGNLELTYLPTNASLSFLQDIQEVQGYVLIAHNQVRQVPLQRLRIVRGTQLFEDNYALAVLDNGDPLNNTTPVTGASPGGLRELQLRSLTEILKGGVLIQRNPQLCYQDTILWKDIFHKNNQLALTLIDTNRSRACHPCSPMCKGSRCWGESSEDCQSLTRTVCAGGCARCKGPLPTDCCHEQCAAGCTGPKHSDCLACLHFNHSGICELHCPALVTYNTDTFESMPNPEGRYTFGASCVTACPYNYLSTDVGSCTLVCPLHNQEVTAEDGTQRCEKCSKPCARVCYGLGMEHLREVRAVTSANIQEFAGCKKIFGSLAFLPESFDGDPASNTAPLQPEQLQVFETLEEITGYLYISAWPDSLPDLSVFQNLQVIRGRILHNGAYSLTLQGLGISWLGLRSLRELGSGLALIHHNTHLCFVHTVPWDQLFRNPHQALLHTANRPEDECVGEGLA

[17] = target: T18, HER2 on tumor cells with high HER2 expression (breast cancer cells BT474; SKBR3) (human, UniProt P04626 23-1255); test: FACS on BT474 cells
T18 construct: whole, on cells; Endogenous full-length receptor on human tumor cell lines; also called breast cancer cells BT474 (with high HER2 expression on the cell surface); HER2 in BT474 and SKBR3 cells

[18] = target: T19, peptide HA-21, bio-HQALLHTANRPEDECVGEGLA (490-510) (N-terminal biotin); test: ELISA on biotin peptides of HER2-ECD DIII
T19 peptide: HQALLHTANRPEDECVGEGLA

HER2-ECD-D502A = target: T20, HER2-ECD-D502A (human, UniProt P04626 23-652); test: ELISA on coated HER2-ECD-D502A; D502A mutant
T20 construct: Site-directed mutant of HER2-ECD-His-pTT5, expressed in HEK293E

HER2-ECD-V505A = target: T21, HER2-ECD-V505A (human, UniProt P04626 23-652); test: ELISA on coated HER2-ECD-V505A (printed HER2-ECD-E505A); V505A mutant (printed E505A)
T21 construct: Site-directed mutant of HER2-ECD-His-pTT5, expressed in HEK293E

[19] = target: T1, human HER2-ECD protein (1 to 652 amino …); test: ELISA on coated human HER2-ECD; chimeric 19H6-ch, FIG. 22 experiment
[20] = target: T1, human HER2-ECD protein (1 to 652 amino …); test: Biacore, antibody captured on Protein A chip, HER2-ECD as analyte
[21] = target: T1, human HER2-ECD protein (1 to 652 amino …); test: ELISA on coated human HER2-ECD; humanized 19H6-Hu
[22] = target: T1, human HER2-ECD protein (1 to 652 amino …); test: ELISA on coated protein labelled HER2 on the sheet (taken as the human HER2-ECD of paragraph 112), positive control of the selectivity assay of Example 7
HER2-ECD protein of rat = target: T22, HER2-ECD protein of rat (rat, UniProt P06494 23-654); test: ELISA, antigen coated at 0.2 µg/well
T22 construct: extracellular domain; Bought; also called Rat-HER2-ECD

human HER3 protein = target: T23, human HER3 protein (human, UniProt P21860 20-643); test: ELISA, antigen coated at 0.2 µg/well
T23 construct: Bought

human HER4 protein = target: T24, human HER4 protein (human, UniProt Q15303 26-649, limits assumed); test: ELISA, antigen coated at 0.2 µg/well
T24 construct: Bought
T24 sequence (looked up): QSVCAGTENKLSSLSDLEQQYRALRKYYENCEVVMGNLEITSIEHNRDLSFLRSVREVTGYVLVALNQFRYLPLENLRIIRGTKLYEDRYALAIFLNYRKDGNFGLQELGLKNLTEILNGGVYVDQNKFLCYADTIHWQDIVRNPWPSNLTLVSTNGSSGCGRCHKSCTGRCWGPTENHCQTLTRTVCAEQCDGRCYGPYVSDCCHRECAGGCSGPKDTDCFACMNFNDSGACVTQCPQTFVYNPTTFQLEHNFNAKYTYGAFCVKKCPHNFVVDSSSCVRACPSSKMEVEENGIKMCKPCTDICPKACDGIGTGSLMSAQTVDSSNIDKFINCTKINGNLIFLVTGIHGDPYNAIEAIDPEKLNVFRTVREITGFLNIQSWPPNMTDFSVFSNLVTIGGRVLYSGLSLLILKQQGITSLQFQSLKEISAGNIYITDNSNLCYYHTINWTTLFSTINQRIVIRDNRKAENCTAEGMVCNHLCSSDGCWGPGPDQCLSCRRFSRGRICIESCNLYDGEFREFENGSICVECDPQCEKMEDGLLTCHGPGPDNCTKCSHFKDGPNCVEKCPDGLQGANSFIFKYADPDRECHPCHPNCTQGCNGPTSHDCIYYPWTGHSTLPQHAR

human HER1 protein = target: T25, human HER1 protein (human, UniProt P00533 25-645); test: ELISA, antigen coated at 0.2 µg/well
T25 construct: Bought

[23] = target: T26, HER2-ECD protein of cynomolgus monkey (cynomolgus monkey, UniProt A0A2K5WUT7 1-622); test: ELISA, Cyno-HER2-ECD coated at 0.2 µg/well
T26 construct: extracellular domain; Bought; also called Cyno-HER2-ECD

[24] = target: T1, human HER2-ECD protein (1 to 652 amino …); test: ELISA on coated human HER2-ECD; humanized 19H6-graft

B1: murine anti-human HER2 monoclonal antibody 19H6 (antibody, V domains shown)
VH: QVQLQQSGPELVRPGESVKISCKGSGYTFTDYAIHWVKQSHAKSLEWIGVFSIYYENINYNQKFKGKATMTVDKSSSTAYLDLARLTSEDSAIYYCARRDGGTINYWGQGTSVTVSS
VL: DVVMTQTPLSLPVSLGDQASISCRSSQSLVHSNGNTYLHWYLQKPGQSPKLLIYKVSNRFSGVPDRFSGSGSGTDFTLKISRVEAEDLGVYFCSQSTHIPWTFGGGTKLEIK
notes: Hybridoma-derived mouse antibody purified on Protein G; also called murine antibody 19H6
- EC50 [1]: 0.041 nM
- IC50 (read off the curve) [2]: ~1 nM
- EC50 [3]: 0.28 nM
- EC50 (HER2-ECD-E507A): 0.867 nM
- binding result [4]: binds
- binding result (495-510): binds
- binding result [5]: binds
- binding result [6]: binds
- binding result [7]: binds
- binding result [8]: binds
- binding result [9]: binds
- binding result [10]: binds
- binding result [11]: binds
- binding result [12]: binds
- binding result [13]: no binding
- binding result [14]: binds
- binding result [15]: no binding
- binding result [16]: no binding
- binding result (HER2-ECD-DI-III): binds
- EC50 [17]: 1.1 nM
- binding result [18]: binds
- EC50 (HER2-ECD-D502A): 0.05 nM
- EC50 (HER2-ECD-V505A): 0.038 nM

B2: chimeric antibody 19H6-ch (antibody, human IgG1, kappa, V domains shown)
VH: QVQLQQSGPELVRPGESVKISCKGSGYTFTDYAIHWVKQSHAKSLEWIGVFSIYYENINYNQKFKGKATMTVDKSSSTAYLDLARLTSEDSAIYYCARRDGGTINYWGQGTSVTVSS
VL: DVVMTQTPLSLPVSLGDQASISCRSSQSLVHSNGNTYLHWYLQKPGQSPKLLIYKVSNRFSGVPDRFSGSGSGTDFTLKISRVEAEDLGVYFCSQSTHIPWTFGGGTKLEIKR
notes: 19H6 variable regions spliced with human IgG1 and kappa constant regions; expressed in HEK-293E
- EC50 [3]: 0.1 nM
- EC50 [19]: 0.05 nM
- EC50 [17]: 1.5 nM

B3: humanized antibody 19H6-Hu (antibody, human IgG1, kappa, V domains shown)
VH: QVQLVQSGAEVKKPGASVKVSCKGSGYTFTDYAIHWVRQAPGQSLEWIGVFSIYYENINYNQKFKGRATMTVDKSTSTAYMELRSLRSDDTAVYYCARRDGGTINYWGQGTLVTVSS
VL: DVVMTQSPLSLPVTLGQPASISCRSSQSLVHSNGNTYLHWYQQRPGQSPRLLIYKVSNRFSGVPDRFSGSGSGTDFTLKISRVEAEDVGVYFCSQSTHIPWTFGQGTKVEIKR
- Kd [20]: 0.713 nM
- koff [20]: 0.000111 s⁻¹
- kon [20]: 155000 M⁻¹ s⁻¹
- EC50 [21]: 0.06 nM
- EC50 (read off the curve) [22]: ~0.1 nM
- EC50 [17]: 1.9 nM
- binding result (HER2-ECD protein of rat): no binding
- binding result (human HER3 protein): no binding
- binding result (human HER4 protein): no binding
- binding result (human HER1 protein): no binding
- EC50 [23]: 0.1 nM

B4: humanized antibody 19H6-graft (antibody, human IgG1, kappa, V domains shown)
VH: QVQLVQSGAEVKKPGASVKVSCKASGYTFTDYAIHWVRQAPGQGLEWMGVFSIYYENINYNQKFKGRVTMTTDTSTSTAYMELRSLRSDDTAVYYCARRDGGTINYWGQGTLVTVSS
VL: DVVMTQSPLSLPVTLGQPASISCRSSQSLVHSNGNTYLHWFQQRPGQSPRRLIYKVSNRFSGVPDRFSGSGSGTDFTLKISRVEAEDVGVYYCSQSTHIPWTFGQGTKVEIKR
notes: Constant regions tied by the words 'The same constant region as that of 19H6-ch'
- EC50 [24]: 0.5 nM

From patent US20210309759A1 (SUNSHINE GUOJIAN PHARMACEUTICAL SHANGHAI, published 2021)
